Laboratory results: patent publication US20240010682A1 (UNIVERSIT T BASEL, published 2024)

T1: fibrin (Fb) network formed from human fibrinogen by thrombin (human, UniProt P02671 36-629; P02675 45-491; P02679 27-437, limits assumed)
T1 construct: Human fibrinogen (FIB 3; depleted of plasminogen, fibronectin and von Willebrand Factor), spiked with 1% AlexaFluor 488-labelled fibrinogen and clotted with thrombin and CaCl2; In the imaging experiments it is a cross-linked gel, not a soluble protein; also called Fb clot; Fb fibers
T1 sequence (looked up) 1: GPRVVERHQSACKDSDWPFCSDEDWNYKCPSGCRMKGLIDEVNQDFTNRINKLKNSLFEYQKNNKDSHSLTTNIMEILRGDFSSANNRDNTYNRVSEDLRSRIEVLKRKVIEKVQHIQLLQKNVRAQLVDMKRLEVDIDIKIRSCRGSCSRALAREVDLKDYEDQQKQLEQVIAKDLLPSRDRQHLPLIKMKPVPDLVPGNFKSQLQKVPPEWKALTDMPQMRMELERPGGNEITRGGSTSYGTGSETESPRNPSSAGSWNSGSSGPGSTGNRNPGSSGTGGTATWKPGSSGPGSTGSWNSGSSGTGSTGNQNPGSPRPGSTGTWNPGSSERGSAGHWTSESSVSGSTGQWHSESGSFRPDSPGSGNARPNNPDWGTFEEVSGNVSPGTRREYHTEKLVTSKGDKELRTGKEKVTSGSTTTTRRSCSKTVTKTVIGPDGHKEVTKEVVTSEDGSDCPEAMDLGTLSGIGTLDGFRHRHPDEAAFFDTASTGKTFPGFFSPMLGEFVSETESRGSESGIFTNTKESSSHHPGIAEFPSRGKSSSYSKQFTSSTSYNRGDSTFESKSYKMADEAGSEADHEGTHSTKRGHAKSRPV
T1 sequence (looked up) 2: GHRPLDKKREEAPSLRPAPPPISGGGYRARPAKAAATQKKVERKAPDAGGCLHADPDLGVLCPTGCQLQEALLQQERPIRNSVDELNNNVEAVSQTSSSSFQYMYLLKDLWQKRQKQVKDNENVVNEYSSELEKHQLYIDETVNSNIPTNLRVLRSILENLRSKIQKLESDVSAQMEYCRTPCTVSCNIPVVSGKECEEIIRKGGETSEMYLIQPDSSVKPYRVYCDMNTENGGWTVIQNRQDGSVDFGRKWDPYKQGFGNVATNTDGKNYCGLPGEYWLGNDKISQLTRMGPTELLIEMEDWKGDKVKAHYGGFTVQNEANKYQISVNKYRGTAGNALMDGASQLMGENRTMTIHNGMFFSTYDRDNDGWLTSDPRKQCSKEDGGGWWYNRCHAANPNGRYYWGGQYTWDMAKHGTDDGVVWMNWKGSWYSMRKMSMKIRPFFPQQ
T1 sequence (looked up) 3: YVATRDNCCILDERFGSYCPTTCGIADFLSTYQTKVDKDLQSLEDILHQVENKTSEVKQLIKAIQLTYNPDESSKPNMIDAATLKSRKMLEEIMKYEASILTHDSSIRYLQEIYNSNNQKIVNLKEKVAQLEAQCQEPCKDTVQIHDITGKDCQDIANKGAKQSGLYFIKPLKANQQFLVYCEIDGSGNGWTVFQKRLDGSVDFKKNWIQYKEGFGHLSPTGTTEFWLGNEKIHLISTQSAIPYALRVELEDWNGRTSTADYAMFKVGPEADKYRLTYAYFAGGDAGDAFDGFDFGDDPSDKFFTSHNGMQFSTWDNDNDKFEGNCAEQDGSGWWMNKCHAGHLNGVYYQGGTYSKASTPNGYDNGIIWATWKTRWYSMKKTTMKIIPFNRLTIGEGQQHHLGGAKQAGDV


Key:
[1] = biological target: fibrin (Fb) network formed from human fibrinogen by thrombin (human) (UniProt P02671); assay: two-colour confocal fluorescence microscopy of Fb clots formed at 22 C, Coloc2 in ImageJ
[2] = biological target: fibrin (Fb) network formed from human fibrinogen by thrombin (human) (UniProt P02671); assay: two-colour confocal fluorescence microscopy of Fb clots formed at 37 C, Coloc2 in ImageJ
[3] = biological target: T1, fibrin (Fb) network formed from human …; assay: two-colour confocal fluorescence microscopy of Fb clots formed at 22 C, colocalisation (Coloc2)
Excerpt: The inventors N-terminally labelled hELPs and conELPs with Atto647-N-hydroxysuccinimide (red channel) and confirmed they were still cross-linked by FXIIIa. Fluorescent-hELPs (f-hELPs) or fluorescent-conELPs (f-conELPs) were then integrated into Fb clots spiked with 1% AlexaFluor 488-labelled fibrinogen (Fg-488, green channel). The inventors used two color confocal fluorescence microscopy to characterize hELP and Fb network morphology, degree of hELP and Fb colocalization, and the influence of hELP phase transition on clot architecture. […] The inventors observed little to no fluorescence intensity in the red channel when only HEPES buffer or f-conELP were added during formation of Fb networks (FIG. 3a, left, HEPES & conELP).
To quantify hELP and Fb spatial colocalization, the inventors used Coloc2 in ImageJ to calculate Pearson's correlation coefficients (PCC) (J. Adler, I. Parmryd, Cytom. Part A 2010, 77, 733). For f-hELP-Fb clots at 22° C., a PCC between f-hELP and Fb channels of 0.69±0.1 indicated high spatial correlation. For f-conELP-Fb clots, a PCC value of 0.05±0.09 indicated no spatial correlation (FIG. 3b).

Pearson's correlation coefficient (PCC) between f-hELP and Fb channels [1]	Pearson's correlation coefficient (PCC) between ELP and Fb channels [2]	binding result [3]	Binder
0.69	0.163	–	fluorescent hELP (f-hELP), hELP labelled with Atto647-N-hydroxysuccinimide (protein, chain 1 pos 1: N-terminal alpha-amine preferentially labelled with Atto647-NHS dye (about 0.95 dye per ELP), written M; minor labelling of K-block lysines is possible.) MGHGVGVPGVGVPGAGVPGVGVPGVGVPGVGVPGVGVPGVGVPGVGVPGVGVPGEGVPGAGSGDQMMLPWPAVALSGVPGVGVPGVGVPGAGVPGVGVPGVGVPGVGVPGVGVPGVGVPGVGVPGVGVPGEGVPGAGSGDQMMLPWPAVALSGVPGVGVPGVGVPGAGVPGVGVPGVGVPGVGVPGVGVPGVGVPGVGVPGVGVPGEGVPGAGSGDQMMLPWPAVALSGVPGVGVPGVGVPGAGVPGVGVPGVGVPGVGVPGVGVPGVGVPGVGVPGVGVPGEGVPGAGSGDQMMLPWPAVALSGVPGVGVPGVGVPGAGVPGVGVPGVGVPGVGVPGVGVPGVGVPGVGVPGVGVPGEGVPGAGVPGVGVPGVGVPGAGVPGVGVPGVGVPGVGVPGVGVPGVGVPGVGVPGVGVPGEGVPGAGVPGVGVPGVGVPGAGVPGVGVPGVGVPGVGVPGVGVPGVGVPGVGVPGVGVPGEGVPGAGVPGVGVPGVGVPGAGVPGVGVPGVGVPGVGVPGVGVPGVGVPGVGVPGVGVPGEGVPGAGVPGVGVPGVGVPGAGVPGVGVPGVGVPGVGVPGVGVPGVGVPGVGVPGVGVPGEGVPGAGSGGSKGSSGVPGVGVPGVGVPGAGVPGVGVPGVGVPGVGVPGVGVPGVGVPGVGVPGVGVPGEGVPGAGSGGSKGSSGVPGVGVPGVGVPGAGVPGVGVPGVGVPGVGVPGVGVPGVGVPGVGVPGVGVPGEGVPGAGSGGSKGSSGVPGVGVPGVGVPGAGVPGVGVPGVGVPGVGVPGVGVPGVGVPGVGVPGVGVPGEGVPGAGSGGSKGSSGVPGWLDSLEFIA
–	–	no binding (tested: 30 µM f-conELP)	fluorescent conELP (f-conELP), conELP labelled with Atto647-N-hydroxysuccinimide (other, chain 1 pos 1: N-terminal alpha-amine labelled with Atto647-NHS dye (about 0.95 dye per ELP), written M., also called f-conELPs; fluorescent-conELPs) MGHGVGVPGVGVPGAGVPGVGVPGVGVPGVGVPGVGVPGVGVPGVGVPGVGVPGEGVPGAGSGDGMMLPWPAVALSGVPGVGVPGVGVPGAGVPGVGVPGVGVPGVGVPGVGVPGVGVPGVGVPGVGVPGEGVPGAGSGDGMMLPWPAVALSGVPGVGVPGVGVPGAGVPGVGVPGVGVPGVGVPGVGVPGVGVPGVGVPGVGVPGEGVPGAGSGDGMMLPWPAVALSGVPGVGVPGVGVPGAGVPGVGVPGVGVPGVGVPGVGVPGVGVPGVGVPGVGVPGEGVPGAGSGDGMMLPWPAVALSGVPGVGVPGVGVPGAGVPGVGVPGVGVPGVGVPGVGVPGVGVPGVGVPGVGVPGEGVPGAGVPGVGVPGVGVPGAGVPGVGVPGVGVPGVGVPGVGVPGVGVPGVGVPGVGVPGEGVPGAGVPGVGVPGVGVPGAGVPGVGVPGVGVPGVGVPGVGVPGVGVPGVGVPGVGVPGEGVPGAGVPGVGVPGVGVPGAGVPGVGVPGVGVPGVGVPGVGVPGVGVPGVGVPGVGVPGEGVPGAGVPGVGVPGVGVPGAGVPGVGVPGVGVPGVGVPGVGVPGVGVPGVGVPGVGVPGEGVPGAGSGGSGGSSGVPGVGVPGVGVPGAGVPGVGVPGVGVPGVGVPGVGVPGVGVPGVGVPGVGVPGEGVPGAGSGGSGGSSGVPGVGVPGVGVPGAGVPGVGVPGVGVPGVGVPGVGVPGVGVPGVGVPGVGVPGEGVPGAGSGGSGGSSGVPGVGVPGVGVPGAGVPGVGVPGVGVPGVGVPGVGVPGVGVPGVGVPGVGVPGEGVPGAGSGGSGGSSGVPGWLDSLEFIA
